Assay results: publication PMC6030175, “A senataxin-associated exonuclease SAN1 is required for resistance to DNA interstrand cross-links”

Molecular target: T1, SAN1 D90A (catalytically inactive) (mouse or human ( for the …, UniProt Q6RI63 1-786, D90A))
T1 sequence: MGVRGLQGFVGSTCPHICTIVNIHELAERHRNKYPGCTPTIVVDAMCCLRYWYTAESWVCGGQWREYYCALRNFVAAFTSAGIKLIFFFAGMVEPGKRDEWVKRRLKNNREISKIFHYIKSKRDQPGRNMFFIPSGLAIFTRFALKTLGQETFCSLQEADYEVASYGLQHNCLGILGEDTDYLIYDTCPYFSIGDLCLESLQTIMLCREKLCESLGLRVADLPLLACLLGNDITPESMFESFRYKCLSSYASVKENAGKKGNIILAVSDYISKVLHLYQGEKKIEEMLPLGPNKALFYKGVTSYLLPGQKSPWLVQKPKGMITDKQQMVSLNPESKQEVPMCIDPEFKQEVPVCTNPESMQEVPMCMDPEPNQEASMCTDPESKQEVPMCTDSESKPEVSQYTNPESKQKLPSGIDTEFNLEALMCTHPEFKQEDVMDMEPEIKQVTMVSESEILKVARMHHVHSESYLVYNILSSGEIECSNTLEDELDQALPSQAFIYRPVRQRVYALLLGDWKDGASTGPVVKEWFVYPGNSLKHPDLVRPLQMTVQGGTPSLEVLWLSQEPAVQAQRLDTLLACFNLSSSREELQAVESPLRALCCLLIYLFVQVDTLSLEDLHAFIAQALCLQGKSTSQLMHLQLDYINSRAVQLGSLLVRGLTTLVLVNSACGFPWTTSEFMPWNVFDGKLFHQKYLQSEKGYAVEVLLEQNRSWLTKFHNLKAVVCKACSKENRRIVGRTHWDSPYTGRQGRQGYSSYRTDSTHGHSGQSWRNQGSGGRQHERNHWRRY
Assay: EMSA; 5 mM Mg2+; protein 0, 1, 5, 10, 20 nM; DNA 1 nM; EMSA: 20 mM HEPES pH 7.4, 0.1% NP-40, 0.1 M KCl, 5 mM MgCl2, 1% glycerol, 0.25 ug/uL BSA, 1 mM DTT, 30 min, room temperature; 5% native gel, 0.5x TBE
Details: protein: recombinant; tags: Strep-tag II (murine, C-terminal) or Strep-FLAG (human); label: 5' 32P; single strand 50 nt

AACGTCATAGACGATTACATTGCTAGGACATCTTTGCCCACGTTGACCCA (ssDNA) [X4]
binding result: binds
